Assay results taken from patent US20070243170A1 (UNIVERSITY OF CHICAGO, published 2007).

What was measured:
[1] = molecular target: Nectin-1 (HveC) (UniProt Q15223); experiment: cell-based or functional assay
[2] = molecular target: HveA (formerly HveM) (UniProt Q92956); experiment: cell-based or functional assay
[3] = molecular target: wild-type gD1-60 polypeptide (residues 1-60 of mature gD; plasmid pGG5414) (herpes simplex virus 1, UniProt P36318 26-85); experiment: co-immunoprecipitation with anti-Myc from HEK293 cells co-transfected with pGG5417+pGG5414

**Q.** With “IL13-gD chimeric glycoprotein D of recombinant virus R5144 (IL13 in the place of gD residues 1-32, V37S)” as the molecule, how does the Replication of R5144 in J-Nectin cells (virus yield) [1] read?
**A.** 50

**Q.** And the Replication of R5144 in J-HveA cells (virus yield) [2]?
**A.** 300

**Q.** Which results are given for “IL13-gD chimeric glycoprotein D of recombinant virus R5141 (IL13 in the place of gD residues 1-32, V34S)”?
**A.** Replication of R5141 in J-Nectin cells (virus yield) [1]: 70; Replication of R5141 in J-HveA cells (virus yield) [2]: 40

B1: gD219-314 polypeptide (mature gD residues 219-314, without transmembrane and cytoplasmic domains, Myc epitope at the C-terminus; plasmid pGG5417) (other)
chain: MLPRFIPENQRTVAVYSLKIAGWHGPKAPYTSTLLPPELSETPNATQPELAPEDPEDSALLEDPVGTVVPQIPPNWHIPSIQDAATPYHPPATPNN
notes: Expressed in HEK293 cells under the CMV promoter; also called C-terminal domain of gD; R5417
**Q.** Does B1 bind [3]?
**A.** no binding
